# Assay results published in patent US20030044814.
# Residue numbers refer to the chain shown, from its start.
# B1: PRC17 (wild type) (protein)
# chain: MDVVEVAGSWWAQEREDIIMKYEKGHRAGLPEDKGPKPFRSYNNNVDHLGIVHETELPPLTAREAKQIRREISRKSKWVDMLGDWEKYKSSRKLIDRAYKGMPMNIRGPMWSVLLNIEEMKLKNPGRYQIMKEKGKRSSEHIQRIDRDVSGTLRKHIFFRDRYGTKQRELLHILLAYEEYNPEVGYCRDLSHIAALFLLYLPEEDAFWALVQLLASERHSLQGFHSPNGGTVQGLQDQQEHVVATSQPKTMGHQDKKDLCGQCSPLGCLIRILIDGISLGLTLRLWDVYLVEGEQALMPITRIAFKVQQKRLTKTSRCGPWARFCNRFVDTWARDEDTVLKHLRASMKKLTRKQGDLPPPAKPEQGSSASRPVPASRGGKTLCKGDRQAPPGPPARFPRPIWSASPPRAPRSSTPCPGGAVREDTYPVGTQGVPSPALAQGGPQGSWRFLQWNSMPRLPTDLDVEGPWFRHYDFRQSCWVRAISQEDQLAPCWQAEHPAERVRSAFAAPSTDSDQGTPFRARDEQPCAPTSGPCLCGLHLESSQFPPGF
# B2: mutant form PRC17 (Arg107 and Asp148 substituted by alanines) (protein)
# chain: B1 chain with R107A, D148A
# Target: Rab5 (recombinant, purified from E. coli)
row,Protein,GTP hydrolysis assay (percentage of non-hydrolysed [gamma-32P]GTP remaining bound to filters)
1,B1,Addition of wild type PRC17 resulted in a 30% reduction of GTP-bound Rab5
2,B2,addition of the mutant form PRC17 had no effect on Rab5 GTP-hydrolysis
